Measurements: patent US20090070901

Target: des(methyl) spinach Rubisco (ribulose-1,5-bisphosphate carboxylase-oxygenase holoenzyme) (UniProt P00875)

Question: With “wild-type pea Rubisco large subunit epsilon-N-methyltransferase (pea Rubisco LSMT)” as the substance, how does the “carboxylase activity at saturating and low CO2” value read?
Answer: Its value is “showed no difference in activity between native Rubisco and Rubisco with bound pea Rubisco LSMT alone”.
